Key:
[1] = Biodistribution and toxicity in normal organs, bone marrow and circulating blood cells; assay type: in vivo, mouse
Description: At necropsy, bone marrow was extracted and registered ex vivo in the IVIS® 200-Spectrum equipment. Mouse blood was collected by punction in the maxillary plexus. The erythrocytes, leucocytes and platelets were isolated by the Ficoll density gradient method using the standard protocol. Further, pellets were obtained by centrifugation of the isolated cell extracts at 600 g, 10 min and then recorded to measure fluorescence using IVIS® 200-Spectrum.
In addition, two independent observers evaluated the possible histopathological alterations observed in H&E stained non-tumor tissue samples, searching for signs of toxicity.

SW1417 CRC cells = assay: MTT cytotoxicity in SW1417 CRC cells; assay type: cell-based, human; details: compared to free oligo-FdU, 72 h, 1.0-1,000 nM
CXCR4^+ SW1417 CRC cells = assay: Internalization in CXCR4+ SW1417 CRC cells (flow cytometry, AMD3100 competition); assay type: cell-based, human; set-up: internalization measured by fluorescence emission using flow cytometry: dose or concentration left out as unconfirmed; details: 1 hour exposure
Description: CXCR4+ SW1417-luc CRC cells were cultured in modified Eagle's medium (Gibco, Rockville, MD) supplemented with 10% fetal calf serum (Gibco), and incubated at 37° C. and 5% CO2 in a humidified atmosphere. […] Fluorescence emission was measured with a D detector (530/30 nm band pass filter). To assess specificity for CXCR4 receptor-mediated internalization, competition studies were performed incubating CRC SW1417 cells with the CXCR4 antagonist AMD3100 (Sigma Aldrich) in a 1:10 (protein:antagonist) molar ratio for 1 h before exposure to the nanoconjugate at […] for an additional hour.
The cells were washed in phosphate-buffered saline (Sigma-Aldrich). Live cells were recorded by TCS-SP5 confocal laser scanning microscopy (Leica Microsystems, Heidelberg, Germany) using a Plan Apo 63×/1.4 (oil HC×PL APO lambda blue) objective as described. To determine particle localization inside the cell, stacks of 10-20 sections forevery 0.5 μm of cell thickness were collected and three-dimensional models were generated using Imaris version 6.1.0 software (Bitplane, Zurich, Switzerland).

[2] = system: subcutaneous CXCR4^+ SW1417 CRC tumor; assay: Tumor uptake and tumor cell internalization in subcutaneous CXCR4+ SW1417 CRC model; set-up: tumor uptake measured by fluorescence emission: dose or concentration left out as unconfirmed
Description: SC model was used to assess tumor uptake and nanoconjugate internalization and in vivo competition studies using co-administration of the CXCR4 antagonist AMD3100.
Two hours, 5 h and 24 h after the administration, the mouse was euthanized to resect the tumor and register ex vivo the intensity of the green fluorescence emitted by the nanoconjugated that biodistributed to tumor tissue using the IVIS® 200-Spectrum (Perkin Elmer, MA, USA). Following, tumor tissue samples were taken, processed and performed immunohistochemistry (IHC) to determine the presence or absence of the corresponding nanoconjugate into cytosol of tumor cells using an anti-GFP antibody (1:300; Santa-Cruz Biotechnology, CA, USA). […] Apoptosis was assessed determining nuclear condensation with Hoechst staining of tumor tissue sections and counting the number of condensed or defragmented nuclei in five high-power magnification fields in different sections for each tumor using the Olympus DP73 digital camera and the CellD Imaging 3.3 programme (Olympus, Tokyo, Japan).

[3] = system: subcutaneous CXCR4^+ SW1417 CRC tumor; assay: Induction of DNA double strand breaks and apoptosis in tumor tissue, SC SW1417 model; assay type: in vivo, mouse
Description: The SC SW1417 mouse model was used to determine the capacity of the nanoconjugate to induce DNA damage and apoptosis in tumor tissue, as well as the kinetics of CXCR4 expression in the membrane of tumor cells after treatment, regarding the fraction of CXCR4 expressing tumor cells and their intensity, since CXCR4^+ are the target cells for the nanoconjugate. […] The mice had been treated with equimolecular dosages of T22-GFP-H6, free oligo-FdU or Buffer, in which also were determined the levels of CXCR4 expression in tumor tissue at the different time points.

CXCR4^+ HeLa cells = assay: MTT cytotoxicity in CXCR4+ HeLa cells; assay type: cell-based, human; details: compared to free oligo-FdU
Description: Afterwards, a graphic displaying the linearized T22-GFP-H6-FdU dose-response trend line representation to compare cell viability for both compounds was constructed. Reduction of cell viability was also determined by optical microscope images of HeLa cells exposed to 1 μM […] for 48 h, as compared to T22-GFP-H6 or free FdU.

[4] = Nanoparticle size by dynamic light scattering; assay type: physicochemical
Description: The volume and size distribution of the nanoparticles was determined by dynamic light scattering at 633 nm (Zetasizer Nano ZS, Malvern Instruments Limited, Malvern, Worcestershire, UK). Nanoconjugate size was also measured using purified samples, diluted to 0.2 mg/mL and contrasted by evaporation of 1 nm platinum layer in carbon-coated grids, before being visualized in a Hitachi H-7000 transmission electron microscope (TEM), as described33.

Substance: T22-GFP-H6-FdU: nanoconjugate of T22-GFP-H6 protein nanoparticle covalently bound via maleimide linker to thiol-functionalized pentameric floxuridine oligonucleotide (oligo-FdU)
- fluorescence emission in erythrocytes, leucocytes or platelets ([1]; 5 h after doses in the 10-100 μg range): Lack of fluorescence emission
- fluorescence emission in spleen or bone marrow ([1]; 5 h after single injections, 10-100 μg range): Lack of fluorescence emission
- level of DSBs in liver (anti-gH2AX IHC) ([1]; 5 h after treatment): undetectable
- apoptosis or histological alteration in bone marrow or liver ([1]; 24 h post-administration): not detected
- mouse body weight ([1]; regression and prevention of metastases experiments): lack of mouse body weight loss
- cytotoxicity measured by cell viability or phase-contrast microscopy (SW1417 CRC cells): significantly higher cytotoxicity than free oligo-FdU
- internalization measured by fluorescence emission using flow cytometry (CXCR4^+ SW1417 CRC cells): internalized
- tumor uptake measured by fluorescence emission ([2]; 5 h after injection, i.v.): selective tumor uptake
- internalization into CXCR4^+ tumor cell cytosol by anti-GFP immunohistochemistry ([2]; single i.v. dose): internalized
- number of apoptotic figures in tumor tissue (Hoechst nuclear condensation or defragmentation) ([3]; 24 h after injection): 13.9±0.5
- number of DSBs foci in tumors (anti-gH2AX IHC) ([3]; five hours after treatment): 22.8±1.4
- cytotoxicity in HeLa cells (CXCR4^+ HeLa cells): higher cytotoxicity than free oligo-FdU
- size determined by dynamic light scattering ([4]; Example 2, unit not given): 14.6+0.14
- size (DLS) ([4]; Example 3): 14.66+0.14 nm
